Assay: yeast display, Sf9 membrane polyspecificity reagent, FACS + sequencing; frameworks hold sequencing errors
In short: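 Galactose-induced (36–48 hours) yeast carrying a synthetic nanobody display library were exposed to 10% biotinylated, detergent-solubilized Sf9 membrane reagent at 4 °C for 1 hour. FACS followed streptavidin microbead enrichment, using low and high (top ~1%) gates for expression (anti-HA) and reagent binding (streptavidin). Colony PCR, MiSeq 2 × 250 sequencing and CDR-length filtering followed. Labels for polyreactivity reflect the gate of origin.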
In the case of “QVQLEESGGGLVQAGGSLRLSCAASGSTFSYYAMGWYRQAPGKERELVAAITYSVGSTYYADSVKGRFTISRDNAKNTVYLQMNSLKPEDTAVYYCNKRYYYSRANYPYDYWGQGTQVTVSS”, the “polyreactivity (PSR sort gate)” value is reported as “low polyreactivity”.
For “QVQLVESRRGLVQAGGSLRLSCASSGFTVCWYAMGLYRPAPGTERELVAAISSGGSTNYADSVKGRFTISRDNAKNTVYFQMNSLKPEDTAVYYCARRLWYSDRYSARWQYDYWGQGTQVTVSS”, the “polyreactivity (PSR sort gate)” value was “high polyreactivity”.
In the case of “QVQLVESGGGLVQAGGSLRLSCAASGITFYGNDMGWYRQAPGKERELVAAISANDGNTYYADSVKGRFTISRDNAKNTVYLQMNSLKPEDTAVYYCAAERYEDYTEYDYWGQGTQVTVSS”, the “polyreactivity (PSR sort gate)” value is reported as “low polyreactivity”.
For “QVQLVESGGGLVQAGGSLRLSCAASGFNFRVNAMGWYRQAPGKERELVAAITKSGGSTYYADSVKGRFTISRDNAKNTVYLQMNSLKPEDTAVYYCNVVWQYSTYVRYNYWGQGTQVTVSS”, the “polyreactivity (PSR sort gate)” value was “low polyreactivity”.
With “QVQLVESGGGLVQAGGSLRLSCAASGRTVLHYDMGWYRQAPGKERELVASISSGVSTHYADSVKGRFTISRDNAKNTVYLQMNSLQPEDTAVYYCAARPYRFGRYGYDYDYWGQGTQVTVSS” the “polyreactivity (PSR sort gate)” value was “high polyreactivity”.
In the case of “QVQLVESGGVLVQAGGSLRLTCAASGFIFKIYAMGWYRQAPGKERELVARITRSGGSTYYADSVKGRFTNSRDNAKNTVYLQMNSLKPEDTAVYYCNAELFRYVRYEYWGQGTQVTVSS”, the “polyreactivity (PSR sort gate)” value is reported as “high polyreactivity”.
For “QVQLVESGGGLVQAGGSLRLSCAASGSIFSSYAMGWYRQAPGKERELVAAITSGGSTYYADSVKGRFTISRDNAKNTVYLLMNSLKPEDTAVYYCAARQVRTSILHMGYWGQGTQVTVSS”, the “polyreactivity (PSR sort gate)” value was “low polyreactivity”.
In the case of “QVQLVESGGGLVQAGGSLRLSCAASGRILQYNDMGWYRPAPGKERELVAAIDWSGGITYYADSVKGRFTISRDNAKNTVYLQMNSLKPEDTAVYYCNADFEYSYLYRMEYWGQGTQVTVSS”, the “polyreactivity (PSR sort gate)” value is reported as “low polyreactivity”.
With “QVQLVESGGGLVQAGGSLRLSCAASGFTFTGYAMGWYRQAPGKERELVAAISQSGGSTYADSVKGRFTISRDNAKNTVYLQMNSLKPEDTAVYYCAAVWFLLTEYDYWGQGTQVTVSS” the “polyreactivity (PSR sort gate)” value was “low polyreactivity”.
With “QVQLVESGGGLVQAGGSLRLSCAASGRIFMNYDMGWYRQPPGKERELVADISISGSTDYADSVKGRFTISRDNAKNTVYLQMNSLKPEDTAVYYCATSFYVSDYYVPYEMGYWGQGTQVTVSS” the “polyreactivity (PSR sort gate)” value was “low polyreactivity”.
In the case of “QVQLVESGGGLVQAGGSLRLSCAPSGRIFDYYAMGWYRQAPGKESELVAAISGSGGSTYYADSVKGRFTISRDNAKNTVYLQMNSLKPEHTAVYYCAYGYLYCYDYWGQGTQVTVSS”, the “polyreactivity (PSR sort gate)” value is reported as “low polyreactivity”.
For “QVQLVESGGGIVQAGGSLRLSCAASGSIFIDYAMGWYRQAPGKERELVAAISWRGGSTYYADSVKGRFTISRDNAKNTVFLQMIRLKPEDTAVYYCAGARRSKRHEYYLGQGTQVTVSS”, the “polyreactivity (PSR sort gate)” value was “high polyreactivity”.
In the case of “QVQLVESGGGLVQAGGSLRLSCAASGFTFVSYAMGWYRQATGKERELVAVIDNSDGDTYYADSVKGRFTISRDNAKNTVYLQMNSLKPEDTAVYYCAADAVIEWTDWYSAWWYYYWGQGTQVTVSS”, the “polyreactivity (PSR sort gate)” value is reported as “low polyreactivity”.
With “QVQLVESGGGLVQAGGSLRLSCAASGRTLYVYTMGWYRQAPGKERELVASISSGVGTNYADSVKGRFTISRDNAKNTVYLQMNSLKPEDTAVYYCAARFRYYRHYYWGQGTQVTVSS” the “polyreactivity (PSR sort gate)” value was “high polyreactivity”.
In the case of “QVQLVESGGGLVQAGGSLRLSCAASGRTFRGNAMGWYRQAPGKERELVAAISRSGGRTYYADSVKGRFTISRDNAKNTVYLQMNSLKPEDTAVYYCNARSYRRWGYYKQAPNGDYWGQGTQVTVSS”, the “polyreactivity (PSR sort gate)” value is reported as “high polyreactivity”.
For “QVQLVESGGGLVQAGGSLRLSCAASGSIFTFYAMGWYRQAPGKERELVAAISKGGDRTYYADSVKGRFTISRDNAKNTVYLQMNSLIPEDTAVYYCARLVRPGRFGDGDYWGQGTQVTVSS”, the “polyreactivity (PSR sort gate)” value was “low polyreactivity”.
For “QVQLVESGGGLVQAGGSLRLSCAASGRTFGSYTMGWYRQAPGKERELVAAISWSGGRTYYADSVKGRFTISRDNAKNTVYLQMNSLKPEDTAVYYCNADAEVVPGEYDYWGQGTQVTVSS”, the “polyreactivity (PSR sort gate)” value was “low polyreactivity”.
With “QVQLVESGGGLVQAGGSLRLSCAASGLIFGRYAMGWYRQAPGKERELVAAISSSGVRTYYADSVKGRFTISRDNAKNTVYLQMNSLKPEDTAVYYCAAAYWSSREDTVIKRYYWGQGTQVTVSS” the “polyreactivity (PSR sort gate)” value was “high polyreactivity”.
In the case of “QVQLQESGGSLVQAGGSLRLSCAASGNILVLPHGLVSPGAERELVATITGGSITYYADSVKGRFTISRDNAKNTVYLQMNSLKPGDTAVYYCAVINIYHRPHPYWGQGTLVTVSS”, the “polyreactivity (PSR sort gate)” value is reported as “high polyreactivity”.
In the case of “QVQLVESAGGLVQAGGSLRLSCAPSGRIFLTNAMGWYRQAPGKERELVAAITSGGSTYYADSVKGRFTISRDNAKNTVYLQMNSLKPEDTAVYYCNADTDRYWPYEYDYWGQGTQVTVSS”, the “polyreactivity (PSR sort gate)” value is reported as “low polyreactivity”.
In the case of “QVQLVESGGGLVQAGGSLRLSCAASGRTFYGYGMGWFRQAPGTDRELVAAIRVGGGSTYYADSVKGRFTISRDNAKNTVYLQMNILKPEDTAVYYCASAIYHYRQKDGYWGQGTQVTVSS”, the “polyreactivity (PSR sort gate)” value is reported as “high polyreactivity”.
In the case of “QVQLVESGGGLVQAGGSLRLSCASSGSTFYFNAMGWSRQAPGKERELVAGNSSGGSTYYADSVKGRFTISRDNAKNTVYLQMNSLKPEDTAVYYCAADSDTFYYTGYDYDYWGQGTQVTVSS”, the “polyreactivity (PSR sort gate)” value is reported as “low polyreactivity”.
For “QVQLVESGGGLVQARGSLRLSCAASGLTFASYAMGWYRQEPGKERELVARISRSGGSTYYADSVKGRFTISRDNAKNTVYFHMNSLKPEDTAVYYCAADYIFRRYPGGGIYDYDYWGQGTQVTVSS”, the “polyreactivity (PSR sort gate)” value was “high polyreactivity”.
In the case of “QVQLVDSRGGLVQAGGSLRLSCAASGSTYLRNVMGSYRQAPGKERELVAAISSRGGSTHYADSVKGRFTISRDNAKNTVYLQMNSMKPEDTAVYYSNAERTAAQYVRAAYDFWGEGTQVTVSS”, the “polyreactivity (PSR sort gate)” value is reported as “low polyreactivity”.
For “QVQLEESGGCLVQAGGSLRLRCAASGRIVALNAMGWYRQAPGKERELVATIRCRGGATYYADSVKGRFTISRDNAKNTVYLQMNSLKPEDNAVYYCDAFTGNRRTYDYWGQGTQVTVSS”, the “polyreactivity (PSR sort gate)” value was “high polyreactivity”.
In the case of “QVQLVESGGGLVQAGGSLRLSCAASGRTFVNYAMGWYRQAPGKERELVAAISGGGGTNYADSVKGRFTISRDNAKNTVYLHMNSLKPQDTAVYYCAADTNGYEFDYWGQGTLVTVSS”, the “polyreactivity (PSR sort gate)” value is reported as “low polyreactivity”.
For “QVQLVESGGGLVQAGGSLRLSCAASGSIFESYAMGWYRQAPGKERELVADITYDGGITYYADSVKGRFTISRDNAKNTVYLQMNSLKPEDTADYYCNADSVQYTPPESDYWGQGTQVTVSS”, the “polyreactivity (PSR sort gate)” value was “low polyreactivity”.
With “QVQLVESGGGLVQAGGSLRLSCAACGLTYNANAMGWYRQAPGKERELVAAIDWIGGSTYYADSVKGRFTISRDNAKNTVYLQMNSLKPEDTAVYYCASRSKRRNYDYWGQGTQVTVSS” the “polyreactivity (PSR sort gate)” value was “high polyreactivity”.
With “QVQLVESGGGLVQAGGSLRLSCAASGSIFRPYAMGWYRQAPGKERELVAGITFIGGSTYYADSVKGRFTISRDNAKNTVYLQRNSLKPEDTAVYYCNADVAPGIFYGYDSWGQGTQVTVSS” the “polyreactivity (PSR sort gate)” value was “low polyreactivity”.
With “QVQLVESGGRLVQAGGSLRLSCAASGFTFGHYAMGWSRPARGKEWELVAAIRWSGGSTYYADSVKGRFTISRDNAKNTVYLQMNSLKPEDTAVYYCAARRFDGFEYDYWGDGTQVTVSS” the “polyreactivity (PSR sort gate)” value was “low polyreactivity”.
In the case of “QVQLVESGGGLVQAGGSLRLSCAASGSTFAFYAMGWYRQAPGKERELVAAISRSGGRTYYADSVKGRFTISRDNAKNTVYLQMNSLKPEDTAVYYFAAPSSITTGPHREYDYWGQGTQVTVSS”, the “polyreactivity (PSR sort gate)” value is reported as “high polyreactivity”.
In the case of “QVQLVESGGGLVQAGGSLRLSCAASGFIFDDNAMGWYRQAPGKERELVAAITSGGGSTYYADSVKGRFTISRDNAKNTVYLQMNSLKQEDTAVYYCNAVPSQHDEFDSWGQGTQVTVSS”, the “polyreactivity (PSR sort gate)” value is reported as “low polyreactivity”.
In the case of “QVKLEESGGCLVQAGGSLRLSCAASGFTFEENAMGWYRQAPGKERELVAAINWSGGNTYYADSVKGRFTISRDNAKNTVYLQMNSLKPEDTAVYYCAADSPRYYYWVGPYYGYDYWGQGTQVTVSS”, the “polyreactivity (PSR sort gate)” value is reported as “high polyreactivity”.
In the case of “QVQLVESGGGLVQAGGSLRLSCAASGSIFGYYVMGWYRQAPGKERELVAAITRSGSTYYADSVKGRFTISRDNAKNTVYLQMNSLKPEDTAVYYCAADGSYYWYPHTTYDYWGQGTQVTVSS”, the “polyreactivity (PSR sort gate)” value is reported as “low polyreactivity”.
For “QVQLVESGGGLVQAGGSLRLSCAASGRTFKYYTMGWYRQAPGKEREFVAAITSSGGRTYYADSVKGRFTISRDNAKNTVDLQMNSLKPEDTAVYYCAASTYRVWLAPATLSRYDYWGQGTQVTVSS”, the “polyreactivity (PSR sort gate)” value was “high polyreactivity”.
With “QVQLVESGGGLVQAGGSLRLSCAASGSTFSFNAMGWYRQAPGKERELVAAISRSGGRTYYADSVKGRFTISRDNAKNTVYLQMNSLKPEDTAVYYCNKVWFQRSVQPVEYDYWGQGTQVTVSS” the “polyreactivity (PSR sort gate)” value was “high polyreactivity”.
In the case of “QVQLVESGGGLVQAGGSLRLSCAASGFIFLGYAMGWYRPAPGKERELVATITWRGGSTYYADSVKGRFTISRDNAKNTVYLQMNSLKPEDTAVYYCAATRGWLHSFARDDHDYWGQGTQVTVSS”, the “polyreactivity (PSR sort gate)” value is reported as “high polyreactivity”.
With “QVQLQESGGGLEQAGGSLRLSCAASGTNTVLYKMGWFRQAPGKEREFVASINFGTSTYYADSVKGRFTDSRDSAINTVFLHMNSLKPEDTSVYYCAAAYRWQDFYRYWGQGTQVTVSS” the “polyreactivity (PSR sort gate)” value was “low polyreactivity”.
With “QVQLVESGGGLVQAGGSLRLSCAASGSIYYAMGWYRQAPGKESEFVAAINSGGSTYYADSVKGRFTISRDNAKNTVYLQMNSLKPEDTAVYYCAKPTYRFYWGDFDYWGQGTQVTVSS” the “polyreactivity (PSR sort gate)” value was “low polyreactivity”.
For “QVQLVESGGGLVQAGGSLRLSCAASGSNFRYNAMGWYRQAPGKERALVAAISGRGTSTYYADSVKGRFTISRDNAKNTVYLQMNSLKPEDTAVYYCAAVYFRTFLVEYYYWGQGTQVTVSS”, the “polyreactivity (PSR sort gate)” value was “high polyreactivity”.
For “QVQLVESGGGLVQAGGSLRLSCAASGSTFSYYAMGWYRQAPGKERELVAAITRGGSTYYADSVKGRFTISRDNAKNTVYLQMNSLKPEDTAVYYWAGQLLRYRYYYWGQGTQVNVSS”, the “polyreactivity (PSR sort gate)” value was “high polyreactivity”.
For “QVQLVESGGGLVQAGGSLRLSCAASGNIFWLNAMGWYRQAPGKEREFVADITWSTGSTYYADSVKGRFTISRDNAKNTVYLQMNSLKPEDTAVYYCAADDGYFNYLILRFKYLYDYWGQGTQVTVSS”, the “polyreactivity (PSR sort gate)” value was “low polyreactivity”.
In the case of “QVQLVESGGGLVQAGGSLRLSCAASGFIFRYYTMGWYRQAPRKERELVASITSGGSTYYADSVKGRFTSSRDNAKNTVYLQMNCLKPEDTAVYSCAKHRDVLWRYKYWGQGTQVTVSS”, the “polyreactivity (PSR sort gate)” value is reported as “high polyreactivity”.
